Earlier results in article PMC2846234.
pKd: −log10 of the molar value.

Target: beta sliding clamp (Escherichia coli) (UniProt P0A988)
Chain of UniProt P0A988 (P0A988 whole entry): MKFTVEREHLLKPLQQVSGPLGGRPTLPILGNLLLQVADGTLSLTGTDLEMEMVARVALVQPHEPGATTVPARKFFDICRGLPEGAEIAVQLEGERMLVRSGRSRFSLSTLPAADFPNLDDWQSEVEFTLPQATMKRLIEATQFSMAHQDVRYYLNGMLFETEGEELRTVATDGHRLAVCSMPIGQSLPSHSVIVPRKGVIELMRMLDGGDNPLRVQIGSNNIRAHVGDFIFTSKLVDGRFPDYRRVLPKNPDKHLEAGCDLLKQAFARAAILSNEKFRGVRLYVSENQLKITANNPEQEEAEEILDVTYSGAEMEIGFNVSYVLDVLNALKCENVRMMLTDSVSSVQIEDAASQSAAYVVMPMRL

pKd: 7.49
Substance: DNA polymerase II (from UniProt P21189)
